Tests used:
Conditions in all cases: 20 nM; 72 h
MCF10A [1] = assay: one-nucleolus phenotype percent effect (relative to siNT 0% and siNOL11 100%); higher = more cells with one nucleolus (ribosome biogenesis inhibition)
Method: (§1)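 After 72 h, cells were fixed and stained with Hoechst and anti-fibrillarin, and nucleoli per nucleus were counted with CellProfiler. Values are plate-adjusted percent effect for the one-nucleolus and 5+ nucleoli phenotypes, normalised to siNT (0%) and to the positive controls siNOL11 or siKIF11 (100%), as the mean of biological triplicates. Percent viability is the nuclei count relative to siNT.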

MCF10A [2] = assay: 5+ nucleoli phenotype percent effect (relative to siNT 0% and siKIF11 100%); higher = more cells with five or more nucleoli
Method: as §1

MCF10A [3] = assay: percent viability (nuclei count relative to siNT); higher = more viable cells
Method: as §1

## AGAGAUUGGUAGAAAUCAGGU [hsa-miR-5186]
MCF10A [1]
  one-nucleolus phenotype percent effect: 28.7%
MCF10A [2]
  5+ nucleoli phenotype percent effect: -25.3%
MCF10A [3]
  percent viability: 33.8%

## UCGAGGAGCUCACAGUCU [hsa-miR-151b]
MCF10A [1]
  one-nucleolus phenotype percent effect: 11.9%
MCF10A [2]
  5+ nucleoli phenotype percent effect: 10.8%
MCF10A [3]
  percent viability: 57.3%

## UUACGGACCAGCUAAGGGAGGC [hsa-miR-4788]
MCF10A [1]
  one-nucleolus phenotype percent effect: -0.639%
MCF10A [2]
  5+ nucleoli phenotype percent effect: 9.13%
MCF10A [3]
  percent viability: 43.7%

## ACAGUAGAGGGAGGAAUCGCAG [hsa-miR-936]
MCF10A [1]
  one-nucleolus phenotype percent effect: -2.74%
MCF10A [2]
  5+ nucleoli phenotype percent effect: 14.1%
MCF10A [3]
  percent viability: 61.7%

## AUGUGCCUGAGGGAGUAAGACA [hsa-miR-550b-2-5p]
MCF10A [1]
  one-nucleolus phenotype percent effect: 9.16%
MCF10A [2]
  5+ nucleoli phenotype percent effect: -13.6%
MCF10A [3]
  percent viability: 49.7%

## CAGGGCAGGAAGAAGUGGACAA [hsa-miR-4436b-3p]
MCF10A [1]
  one-nucleolus phenotype percent effect: 31.7%
MCF10A [2]
  5+ nucleoli phenotype percent effect: -7.65%
MCF10A [3]
  percent viability: 20.5%

## UGUAAACAUCCCCGACUGGAAG [hsa-miR-30d-5p]
MCF10A [1]
  one-nucleolus phenotype percent effect: 0.554%
MCF10A [2]
  5+ nucleoli phenotype percent effect: 30.3%
MCF10A [3]
  percent viability: 62.7%

## CUUGCCAUCCUGGUCCACUGCAU [hsa-miR-4776-3p]
MCF10A [1]
  one-nucleolus phenotype percent effect: 25.4%
MCF10A [2]
  5+ nucleoli phenotype percent effect: -38.5%
MCF10A [3]
  percent viability: 20.6%

## UGUUCAUGUAGAUGUUUAAGC [hsa-miR-1206]
MCF10A [1]
  one-nucleolus phenotype percent effect: -22.5%
MCF10A [2]
  5+ nucleoli phenotype percent effect: 42.5%
MCF10A [3]
  percent viability: 95.8%

## GAGUGCCUUCUUUUGGAGCGUU [hsa-miR-515-3p]
MCF10A [1]
  one-nucleolus phenotype percent effect: -6.31%
MCF10A [2]
  5+ nucleoli phenotype percent effect: 9.82%
MCF10A [3]
  percent viability: 50.3%

## CUGGGGAGUGGCUGGGGAG [hsa-miR-6763-5p]
MCF10A [1]
  one-nucleolus phenotype percent effect: 30.5%
MCF10A [2]
  5+ nucleoli phenotype percent effect: -2.28%
MCF10A [3]
  percent viability: 29.7%

## UCUAGGCUGGUACUGCUGA [hsa-miR-645]
MCF10A [1]
  one-nucleolus phenotype percent effect: -11.5%
MCF10A [2]
  5+ nucleoli phenotype percent effect: 7.45%
MCF10A [3]
  percent viability: 59.5%

## ACUCAAAAGAUGGCGGCACUUU [hsa-miR-371b-5p]
MCF10A [1]
  one-nucleolus phenotype percent effect: -20.5%
MCF10A [2]
  5+ nucleoli phenotype percent effect: 19.5%
MCF10A [3]
  percent viability: 96.1%

## AGUUAGGAUUAGGUCGUGGAA [hsa-miR-1258]
MCF10A [1]
  one-nucleolus phenotype percent effect: 6.84%
MCF10A [2]
  5+ nucleoli phenotype percent effect: -19.1%
MCF10A [3]
  percent viability: 37.3%

## AAAGGUCAUUGUAAGGUUAAUGC [hsa-miR-3974]
MCF10A [1]
  one-nucleolus phenotype percent effect: 63.7%
MCF10A [2]
  5+ nucleoli phenotype percent effect: -42%
MCF10A [3]
  percent viability: 39.8%

## GUCCGCUCGGCGGUGGCCCA [hsa-miR-572]
MCF10A [1]
  one-nucleolus phenotype percent effect: -16.2%
MCF10A [2]
  5+ nucleoli phenotype percent effect: -5.13%
MCF10A [3]
  percent viability: 96%

## AACACUGGCCUUGCUAUCCCCA [hsa-miR-6757-3p]
MCF10A [1]
  one-nucleolus phenotype percent effect: 30.1%
MCF10A [2]
  5+ nucleoli phenotype percent effect: -35%
MCF10A [3]
  percent viability: 52.1%

## UGGGCCAUGCAUUUCUAGAACU [hsa-miR-6508-3p]
MCF10A [1]
  one-nucleolus phenotype percent effect: 41.6%
MCF10A [2]
  5+ nucleoli phenotype percent effect: -35%
MCF10A [3]
  percent viability: 40.2%

## UCUGUGGAGUGGGGUGCCUGU [hsa-miR-7114-5p]
MCF10A [1]
  one-nucleolus phenotype percent effect: 15%
MCF10A [2]
  5+ nucleoli phenotype percent effect: 7.56%
MCF10A [3]
  percent viability: 16%

## CUGGACUGAGCCAUGCUACUGG [hsa-miR-1269b]
MCF10A [1]
  one-nucleolus phenotype percent effect: 2.22%
MCF10A [2]
  5+ nucleoli phenotype percent effect: 18.3%
MCF10A [3]
  percent viability: 60.9%

## GGUGGGAUGGAGAGAAGGUAUGAG [hsa-miR-4769-5p]
MCF10A [1]
  one-nucleolus phenotype percent effect: -13.3%
MCF10A [2]
  5+ nucleoli phenotype percent effect: 33.7%
MCF10A [3]
  percent viability: 77.6%

## UCAGGCUCAGUCCCCUCCCGAU [hsa-miR-484]
MCF10A [1]
  one-nucleolus phenotype percent effect: -7.07%
MCF10A [2]
  5+ nucleoli phenotype percent effect: 40.7%
MCF10A [3]
  percent viability: 97%

## UUCGCCACUUCCCUCCCUGCAG [hsa-miR-6788-3p]
MCF10A [1]
  one-nucleolus phenotype percent effect: -13.9%
MCF10A [2]
  5+ nucleoli phenotype percent effect: 18%
MCF10A [3]
  percent viability: 89.7%

## AGGCACGGUGUCAGCAGGC [hsa-miR-564]
MCF10A [1]
  one-nucleolus phenotype percent effect: 11.4%
MCF10A [2]
  5+ nucleoli phenotype percent effect: -12.9%
MCF10A [3]
  percent viability: 67.8%

## UGCCUUCCUGUCUGUG [hsa-miR-4297]
MCF10A [1]
  one-nucleolus phenotype percent effect: 16.6%
MCF10A [2]
  5+ nucleoli phenotype percent effect: -10.3%
MCF10A [3]
  percent viability: 20.9%

## GGCGGAGGGAAGUAGGUCCGUUGGU [hsa-miR-658]
MCF10A [1]
  one-nucleolus phenotype percent effect: -9.25%
MCF10A [2]
  5+ nucleoli phenotype percent effect: 5.47%
MCF10A [3]
  percent viability: 63%

## AACUCUGUCUUCACUCAUGAGU [hsa-miR-3664-5p]
MCF10A [1]
  one-nucleolus phenotype percent effect: -2.78%
MCF10A [2]
  5+ nucleoli phenotype percent effect: 6.12%
MCF10A [3]
  percent viability: 60.5%

## UACAGAUGCAGAUUCUCUGACUUC [hsa-miR-5683]
MCF10A [1]
  one-nucleolus phenotype percent effect: 15.3%
MCF10A [2]
  5+ nucleoli phenotype percent effect: 8.12%
MCF10A [3]
  percent viability: 40.9%

## AGGGGUGUGGAAAGAGGCAGAACA [hsa-miR-6747-5p]
MCF10A [1]
  one-nucleolus phenotype percent effect: -4.28%
MCF10A [2]
  5+ nucleoli phenotype percent effect: 37.7%
MCF10A [3]
  percent viability: 40%

Reference: the supplement of paper PMC10899765
